Test results: doi:10.1101/2021.01.21.427698 (bioRxiv, 2021)

B1: recombinant human septin octamers containing SEPT9_i1 (nonfluorescent) (complex)
chain 1: MSKQQPTQFINPETPGYVGFANLPNQVHRKSVKKGFEFTLMVVGESGLGKSTLINSLFLTDLYPERVIPGAAEKIERTVQIEASTVEIEERGVKLRLTVVDTPGYGDAINCRDCFKTIISYIDEQFERYLHDESGLNRRHIIDNRVHCCFYFISPFGHGLKPLDVAFMKAIHNKVNIVPVIAKADTLTLKERERLKKRILDEIEEHNIKIYHLPDAESDEDEDFKEQTRLLKASIPFSVVGSNQLIEAKGKKVRGRLYPWGVVEVENPEHNDFLKLRTMLITHMQDLQEVTQDLHYENFRSERLKRGGRKVENEDMNKDQILLEKEAELRRMQEMIARMQAQMQMQMQGGDGDGGALGHHV
chain 2: MAATDIARQVGEGCRTVPLAGHVGFDSLPDQLVNKSVSQGFCFNILCVGETGLGKSTLMDTLFNTKFEGEPATHTQPGVQLQSNTYDLQESNVRLKLTIVSTVGFGDQINKEDSYKPIVEFIDAQFEAYLQEELKIRRVLHTYHDSRIHVCLYFIAPTGHSLKSLDLVTMKKLDSKVNIIPIIAKADAISKSELTKFKIKITSELVSNGVQIYQFPTDDESVAEINGTMNAHLPFAVIGSTEELKIGNKMMRARQYPWGTVQVENEAHCDFVKLREMLIRVNMEDLREQTHTRHYELYRRCKLEEMGFKDTDPDSKPFSLQETYEAKRNEFLGELQKKEEEMRQMFVQRVKEKEAELKEAEKELHEKFDRLKKLHQDEKKKLEDKKKSLDDEVNAFKQRKTAAELLQSQGSQAGGSQTLKRDKEKKN
chain 3: MSVSARSAAAEERSVNSSTMVAQQKNLEGYVGFANLPNQVYRKSVKRGFEFTLMVVGESGLGKSTLINSLFLTDLYSPEYPGPSHRIKKTVQVEQSKVLIKEGGVQLLLTIVDTPGFGDAVDNSNCWQPVIDYIDSKFEDYLNAESRVNRRQMPDNRVQCCLYFIAPSGHGLKPLDIEFMKRLHEKVNIIPLIAKADTLTPEECQQFKKQIMKEIQEHKIKIYEFPETDDEEENKLVKKIKDRLPLAVVGSNTIIEVNGKRVRGRQYPWGVAEVENGEHCDFTILRNMLIRTHMQDLKDVTNNVHYENYRSRKLAAVTYNGVDNNKNKGQLTKSPLAQMEEERREHVAKMKKMEMEMEQVFEMKVKEKVQKLKDSEAELQRRHEQMKKNLEAQHKELEEKRRQFEDEKANWEAQQRILEQQNSSRTLEKNKKKGKIF
chain 4: MKKSYSGGTRTSSGRLRRLGDSSGPALKRSFEVEEVETPNSTPPRRVQTPLLRATVASSTQKFQDLGVKNSEPSARHVDSLSQRSPKASLRRVELSGPKAAEPVSRRTELSIDISSKQVENAGAIGPSRFGLKRAEVLGHKTPEPAPRRTEITIVKPQESAHRRMEPPASKVPEVPTAPATDAAPKRVEIQMPKPAEAPTAPSPAQTLENSEPAPVSQLQSRLEPKPQPPVAEATPRSQEATEAAPSCVGDMADTPRDAGLKQAPASRNEKAPVDFGYVGIDSILEQMRRKAMKQGFEFNIMVVGQSGLGKSTLINTLFKSKISRKSVQPTSEERIPKTIEIKSITHDIEEKGVRMKLTVIDTPGFGDHINNENCWQPIMKFINDQYEKYLQEEVNINRKKRIPDTRVHCCLYFIPATGHSLRPLDIEFMKRLSKVVNIVPVIAKADTLTLEERVHFKQRITADLLSNGIDVYPQKEFDEDSEDRLVNEKFREMIPFAVVGSDHEYQVNGKRILGRKTKWGTIEVENTTHCEFAYLRDLLIRTHMQNIKDITSSIHFEAYRVKRLNEGSSAMANGVEEKEPEAPEM
B2: recombinant human septin octamers containing SEPT9_i3 (nonfluorescent) (complex)
chain 1: B1 chain 1
chain 2: B1 chain 2
chain 3: B1 chain 3
chain 4: MERDRISALKRSFEVEEVETPNSTPPRRVQTPLLRATVASSTQKFQDLGVKNSEPSARHVDSLSQRSPKASLRRVELSGPKAAEPVSRRTELSIDISSKQVENAGAIGPSRFGLKRAEVLGHKTPEPAPRRTEITIVKPQESAHRRMEPPASKVPEVPTAPATDAAPKRVEIQMPKPAEAPTAPSPAQTLENSEPAPVSQLQSRLEPKPQPPVAEATPRSQEATEAAPSCVGDMADTPRDAGLKQAPASRNEKAPVDFGYVGIDSILEQMRRKAMKQGFEFNIMVVGQSGLGKSTLINTLFKSKISRKSVQPTSEERIPKTIEIKSITHDIEEKGVRMKLTVIDTPGFGDHINNENCWQPIMKFINDQYEKYLQEEVNINRKKRIPDTRVHCCLYFIPATGHSLRPLDIEFMKRLSKVVNIVPVIAKADTLTLEERVHFKQRITADLLSNGIDVYPQKEFDEDSEDRLVNEKFREMIPFAVVGSDHEYQVNGKRILGRKTKWGTIEVENTTHCEFAYLRDLLIRTHMQNIKDITSSIHFEAYRVKRLNEGSSAMANGVEEKEPEAPEM

Target: the molecule itself
Test: negative-stain electron microscopy of septin polymerisation

Protein	binding result
B1	binds
B2	binds
